Results published in PMC7773321.

Experiments:
Neutrophil elastase = Neutrophil elastase (UniProt P08246)
UniProt P08246, sequence (P08246 30-267): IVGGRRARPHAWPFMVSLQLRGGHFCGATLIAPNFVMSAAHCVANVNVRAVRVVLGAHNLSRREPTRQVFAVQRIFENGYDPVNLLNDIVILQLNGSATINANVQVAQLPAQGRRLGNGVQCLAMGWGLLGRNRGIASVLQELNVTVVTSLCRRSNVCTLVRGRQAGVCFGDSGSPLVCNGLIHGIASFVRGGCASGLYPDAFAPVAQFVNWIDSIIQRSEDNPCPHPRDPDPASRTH

Row | Substance | IC50 of inhibition of NE activity (fluorometric NE activity assay, 25 nM NE, 0-50 nM ecotin, 37°C) (Neutrophil elastase) | cleavage of the FRET peptide Dabcyl-…-Edans by factor Xa with 15 nM ecotin, relative fluorescence units after 60 min (0-60 min followed; 350 RFU without ecotin) (Factor Xa)
1 | Ecotin from Campylobacter rectus, C-terminal His6 fusion (natural protein) | 4.49 nM | 48 RFU
2 | Ecotin from Campylobacter showae, C-terminal His6 fusion (natural protein) | 4.78 nM | 17.7 RFU
3 | Ecotin from E. coli, C-terminal His6 fusion (from UniProt P23827 21-162) (natural protein) | 4.64 nM | 21.3 RFU
